Target: Ephrin-B2 (human, full length coding sequence, expressed on mesenchymal stem cells nucleofected with pEphrin-B2/IRES2-eGFP) (human) (UniProt P52799)
Experiment: flow cytometry, Fc-chimera binding to Ephrin-B2-transfected MSCs against untransfected MSCs, FITC anti-human IgG1 detection

UniProt P52799, sequence (P52799 28-333): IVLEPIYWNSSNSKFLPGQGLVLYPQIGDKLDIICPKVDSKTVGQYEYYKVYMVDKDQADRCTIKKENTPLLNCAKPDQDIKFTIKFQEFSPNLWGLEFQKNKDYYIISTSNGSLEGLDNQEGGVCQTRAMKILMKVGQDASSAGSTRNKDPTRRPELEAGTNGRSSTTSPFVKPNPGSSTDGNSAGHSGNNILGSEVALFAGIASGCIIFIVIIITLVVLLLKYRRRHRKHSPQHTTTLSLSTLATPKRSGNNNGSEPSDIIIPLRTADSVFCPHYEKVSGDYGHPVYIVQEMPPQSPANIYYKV

increase in binding to transfected MSCs compared to normal cells: 22%
Substance: Eph-B4/Fc chimera protein (pre-clustered) (Fc fusion)
